This note sets out measurements from paper PMC10799026, “Differences in regulation mechanisms of glutamine synthetases from methanogenic archaea unveiled by structural investigations” (Communications Biology, 2024).

What is called stoichiometry N is the number of molecules, sites or subunits per partner or assembly. The inhibition is how much of the control response was suppressed. A word on the Km: it is the substrate concentration at which the rate is half of its maximum. In general, Vmax refers to the top rate of the reaction or transport when substrate is in excess.

The target of data set [1] is glutamine synthetase (GSI-α) from Methermicoccus shengliensis (Methermicoccus shengliensis). In words: native gel or EMSA; high-resolution clear native PAGE (hrCN PAGE), 5-12% gradient gels, 40 mA for 1 h, 2 µg purified GS; size from a fit to standard proteins. A general note: A gel shift assay detects complexes by their altered migration in electrophoresis.
Data set [2] has the same target. The data set is described as follows: crystal structure; sitting drop, 20 °C, anaerobic; apo and ligand-bound (2OG/Mg2+, 2OG/Mg2+/ATP, Mg2+/ATP) crystal forms.
Data set [3] shares this target. In words: SEC; Superose 6 Increase 10/300 GL, anaerobic, 20 °C, 25 mM Tris/HCl pH 7.6, 10% glycerol, 2 mM DTT, 0.4 ml/min; 76 µg MtGS, 67.5 µg MsGS; size from a fit to standard proteins. Background: SEC sorts molecules by how far they enter the pores of the column.
Data set [4] concerns the target glutamine synthetase (GSI-α) from Methanothermococcus thermolithotrophicus (Methanothermococcus thermolithotrophicus). In words: native gel or EMSA; high-resolution clear native PAGE (hrCN PAGE), 5-12% gradient gels, 40 mA for 1 h, 2 µg purified GS; size from a fit to standard proteins.
Data set [5] has the same target. The data set is described as follows: crystal structure; sitting drop, 20 °C, anaerobic; apo and ligand-bound (2OG/Mg2+, 2OG/Mg2+/ATP, Mg2+/ATP) crystal forms.
Data set [6] shares this target. In words: SEC; Superose 6 Increase 10/300 GL, anaerobic, 20 °C, 25 mM Tris/HCl pH 7.6, 10% glycerol, 2 mM DTT, 0.4 ml/min; 76 µg MtGS, 67.5 µg MsGS; size from a fit to standard proteins.
For data set [7], the target named is T1, MsGS (Methermicoccus shengliensis, UniProt A0A832VZP6).
T1 construct: gene glnA; native, purified anaerobically from M. shengliensis cells, no tag
T1 sequence (A0A832VZP6 1-442): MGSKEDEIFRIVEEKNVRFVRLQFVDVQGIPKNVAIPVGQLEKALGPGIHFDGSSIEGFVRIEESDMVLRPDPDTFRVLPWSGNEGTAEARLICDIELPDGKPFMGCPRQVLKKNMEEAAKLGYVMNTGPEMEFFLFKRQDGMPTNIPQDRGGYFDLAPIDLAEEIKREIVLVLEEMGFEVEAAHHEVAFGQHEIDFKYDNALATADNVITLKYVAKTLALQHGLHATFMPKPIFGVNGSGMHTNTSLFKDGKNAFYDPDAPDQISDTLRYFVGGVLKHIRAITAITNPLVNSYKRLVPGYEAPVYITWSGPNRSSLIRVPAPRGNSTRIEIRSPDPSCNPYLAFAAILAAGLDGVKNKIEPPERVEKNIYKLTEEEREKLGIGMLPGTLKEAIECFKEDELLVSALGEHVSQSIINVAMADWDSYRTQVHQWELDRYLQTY
The data set is described as follows: PK/LDH coupled assay, NADH oxidation at […] nm. The format is biochemical. Conditions: read-out: % inhibition at 20 mM.

Substrate in data set [8]: N[C@@H](CCC(=O)O)C(=O)O
In words: purified protein. In kind it is biochemical, Methermicoccus shengliensis. The following applies: 20 mM NH4Cl, 3 mM ATP, 25 mM MgCl2, pH 7, 45 °C, standard mix contains 2 mM 2OG (no effect on MsGS), Hill fit.

Substrate in data set [9]: N
The data set is described as follows: purified protein. Conditions: 3 mM ATP, 25 mM MgCl2, pH 7, 45 °C, Hill fit.

Substrate in data set [10]: N[C@@H](CCC(=O)O)C(=O)O
The data set is described as follows: purified protein. In kind it is biochemical, Methanothermococcus thermolithotrophicus. The following applies: in presence of 2 mM 2OG (required activator), 20 mM NH4Cl, 3 mM ATP, 25 mM MgCl2, pH 7, 45 °C, Hill fit.

[11] abbreviates: 80 mM glutamate, standard mix contains 2 mM 2OG (no effect on MsGS).
The mark [12] stands for this setting: in presence of 2 mM 2OG (required activator), 50 mM glutamate.

“glutamine synthetase (GSI-α) from Methermicoccus shengliensis (enzyme)”: the stoichiometry N in data set [1], in data set [2] and in data set [3] was 12 in each case.

Consider “glutamine synthetase (GSI-α) from Methanothermococcus thermolithotrophicus (enzyme)”, for which the stoichiometry N in data set [4], in [5] and in data set [6] was 12 in each case.

On to `NC(=O)CC[C@H](N)C(=O)O` [glutamine], for which the inhibition at 20000 µM in [7] was 97%.

B1: MsGS (Methermicoccus shengliensis) (protein)
chain: T1 sequence (A0A832VZP6 1-442)
notes: native, purified anaerobically from M. shengliensis cells, no tag
Consider B1, for which, in data set [8], the Km was found to be 32.57 ± 3.13 mM and the Vmax worked out at 1.4 µmol/min/mg. In addition, in data set [9] (setting [11]), the Michaelis-Menten constant (Km) came to 0.07 ± 0.01 mM and the maximal velocity (Vmax) worked out at 0.98 µmol/min/mg.

B2: MtGS (Methanothermococcus thermolithotrophicus DSM 2095) (protein)
chain: MSTVEQVLEYVKSNNVKFMRFQFVDILGVPKNVAFPIKAGEKGIEELRDVLENGLYFDGSSIEGFVGINESDMMLKPDLSTFSVLPWRPSEKSVARVICDVYTTKGKPFEGDPRGCLKRVMEEFKKEFNGEYFVGPEPEFFLLKKDPHNPHKYIPADDGGYFDLEPMDEAPDIRRDIVFALENLGFHVEASHHEVAPGQHEVDFKFDDALKTADSVITFKTTIKTIAEQHGLKATFMPKPFFGMNGSGMHCHQSIWLNGEPSFYDENAPYQLSETCMNYVAGILKHAKAIVAITNPTVNSYKRLVPGYEAPVNIAWANSNRSAIIRVPAARGKGTRIEFRAPDPSCNPYLAFTVMLAAGLDGVKNKLDAPEPVERNIFAMSEAEKKELGIESVPANLKAALDELENNDVLKNALGKHIFESFLEIKNAEWDSFRTSVTDWETTAYLKI
notes: native, purified anaerobically from M. thermolithotrophicus cells, no tag
Consider B2, for which, in data set [10], the Km is recorded as 8.76 ± 0.87 mM and the Vmax worked out at 3.42 µmol/min/mg. Also, in data set [9] (setting [12]), the Michaelis-Menten constant (Km) came out at 0.14 ± 0.01 mM and the Vmax was determined as 3.27 µmol/min/mg.
